Test results taken from patent US20210221899A1 (published 2021).

T1: canine NGF (canine, UniProt Q29074 110-229 (pig entry), limits assumed)
T1 construct: The protein was secreted from CHO cells and purified; also called cNGF; canine β-NGF
T1 chain: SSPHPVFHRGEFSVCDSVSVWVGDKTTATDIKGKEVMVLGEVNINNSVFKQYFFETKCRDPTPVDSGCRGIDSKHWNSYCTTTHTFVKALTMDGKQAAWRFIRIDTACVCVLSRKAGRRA

T2: human NGF (human, UniProt P01138 122-241)
T2 construct: also called human Nerve Growth Factor; hN
T2 chain: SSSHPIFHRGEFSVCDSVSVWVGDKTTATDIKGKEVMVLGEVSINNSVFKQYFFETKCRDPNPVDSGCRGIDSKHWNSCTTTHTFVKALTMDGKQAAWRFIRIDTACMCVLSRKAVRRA


Tests used:
canine NGF = biological target: T1, canine NGF; test: SPR (Biacore T200), 100 nM mAb on NGF chip, similarity to parent mAb
Method in brief: (§1)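 For each alanine substitution in heavy- or light-chain CDRs, binding to an NGF chip was measured by SPR (Biacore T200) with 100 nM antibody. The "% similarity score" is the fraction of the mutant's sensorgram points within the parent mAb's mean ±3 SD response-unit window, taken from four replicates.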

rat NGF = biological target: T3, rat NGF (rat, UniProt P25427 122-241); test: as above
T3 construct: also called rN
T3 sequence (P25427 122-241 limits assumed): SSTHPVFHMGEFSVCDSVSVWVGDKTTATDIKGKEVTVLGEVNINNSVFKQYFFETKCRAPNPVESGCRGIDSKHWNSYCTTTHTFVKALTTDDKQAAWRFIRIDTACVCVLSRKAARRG
Method in brief: as §1

human NGF [1] = biological target: T2, human NGF; test: as above
Method in brief: as §1

human NGF [2] = biological target: T2, human NGF; test: SPR (Biacore), human NGF amine-coupled on chip, antibody injected
Method: Antibody binding affinities of the antibodies against human NGF (SEQ ID NO.66) were determined by surface plasmon resonance (SPR). Human NGF was immobilized on the surface of a BIACORE chip by direct amine coupling. Various concentrations of the described humanized anti-NGF antibodies were injected over the human NGF surfaces while the association of the antibody to the antigen and the dissociation of the formed complex were monitored in real time. Kinetic analysis was performed to obtain the equilibrium dissociation constant (KD).

Binder | Percent Similarity Score (KD on cN) (canine NGF) [%] | Percent Similarity Score (KD on rN) (rat NGF) [%] | Percent Similarity Score (KD on hN) (human NGF [1]) [%] | Kd (human NGF [2]) [nM] | koff (human NGF [2]) [s⁻¹] | kon (human NGF [2]) [M⁻¹ s⁻¹]
can48L2VL_S91A (antibody, V domains shown, CDR scanning mutant of ZTS-842 (48L2)) VH: EVQLVESGGDLVKPGGSLRLSCVASGFTFSTYGINWVRQAPGKGLQWVAYISSGGSSTYYADPVKGRFTISRDDAKNMLYLQMNSLRAEDTAIYYCAGSRYTYAYGGGYEFHFWGQGTLVTVSS VL: QAVLNQPASVSGALGQKVTISCSGSTMDIDIFGVSWYQQLPGKAPKLLVDSDGDRPSGIPDRFSGSRSGNSGTLTITGLQAEDEADYHCQAGDSTLGALAIFGGGTHVTVL | 59.6 | 76.7 | 97.5 | – | – | –
can48L2VL_T26A (antibody, V domains shown, CDR scanning mutant of ZTS-842 (48L2)) VH: EVQLVESGGDLVKPGGSLRLSCVASGFTFSTYGINWVRQAPGKGLQWVAYISSGGSSTYYADPVKGRFTISRDDAKNMLYLQMNSLRAEDTAIYYCAGSRYTYAYGGGYEFHFWGQGTLVTVSS VL: QAVLNQPASVSGALGQKVTISCSGSAMDIDIFGVSWYQQLPGKAPKLLVDSDGDRPSGIPDRFSGSRSGNSGTLTITGLQAEDEADYHCQSGDSTLGALAIFGGGTHVTVL | 97.3 | 98 | 99.8 | – | – | –
humanized mAb can48L2VH_HM855323.1 / can48L2VL_Z22192.1 (antibody, V domains shown) VH: EVQLVESGGGLVKPGGSLRLSCAASGFTFSTYGINWVRQAPGKGLEWVSYISSGGSSTYYADSVKGRFTISRDNAKNSLYLQMNSLRAEDTAVYYCAGSRYTYAYGGGYEFHFWGQGTLVTVSS VL: QSVVTQPPSVSGAPGQRVTISCTGSTMDIDIFGVSWYQQLPGTAPKLLIYGDGDRPSGVPDRFSGSKSGASASLAITGLQAEDEADYHCQSGDSTLGALAIFGGGTHVTVL | – | – | – | 1.54 | 0.000256 | 167000
humanized mAb can48L2VH_HM855336.1 / can48L2VL_Z22192.1 (antibody, V domains shown) VH: EVQLVESGGGLVQPGGSLRLSCAASGFTFSTYGMNWVRQAPGKGLEWVSYISSGGSSIYYADSVKGRFTISRDNAKNSLYLQMNSLRAEDTAVYYCAGSRYTYAYGGGYEFHFWGQGTLVTVSS VL: QSVVTQPPSVSGAPGQRVTISCTGSTMDIDIFGVSWYQQLPGTAPKLLIYGDGDRPSGVPDRFSGSKSGASASLAITGLQAEDEADYHCQSGDSTLGALAIFGGGTHVTVL | – | – | – | 1.25 | 0.000337 | 269000
can48L2VL_S94A (antibody, V domains shown, CDR scanning mutant of ZTS-842 (48L2)) VH: EVQLVESGGDLVKPGGSLRLSCVASGFTFSTYGINWVRQAPGKGLQWVAYISSGGSSTYYADPVKGRFTISRDDAKNMLYLQMNSLRAEDTAIYYCAGSRYTYAYGGGYEFHFWGQGTLVTVSS VL: QAVLNQPASVSGALGQKVTISCSGSTMDIDIFGVSWYQQLPGKAPKLLVDSDGDRPSGIPDRFSGSRSGNSGTLTITGLQAEDEADYHCQSGDATLGALAIFGGGTHVTVL | 97.8 | 99.3 | 100 | – | – | –
humanized mAb can48L2VH_HM855323.1 / can48L2VL_Z22192.1_P8A (antibody, V domains shown) VH: EVQLVESGGGLVKPGGSLRLSCAASGFTFSTYGINWVRQAPGKGLEWVSYISSGGSSTYYADSVKGRFTISRDNAKNSLYLQMNSLRAEDTAVYYCAGSRYTYAYGGGYEFHFWGQGTLVTVSS VL: QSVVTQPASVSGAPGQRVTISCTGSTMDIDIFGVSWYQQLPGTAPKLLIYGDGDRPSGVPDRFSGSKSGASASLAITGLQAEDEADYHCQSGDSTLGALAIFGGGTHVTVL | – | – | – | 1.54 | 0.000315 | 205000
can48L2VL_T95A (antibody, V domains shown, CDR scanning mutant of ZTS-842 (48L2)) VH: EVQLVESGGDLVKPGGSLRLSCVASGFTFSTYGINWVRQAPGKGLQWVAYISSGGSSTYYADPVKGRFTISRDDAKNMLYLQMNSLRAEDTAIYYCAGSRYTYAYGGGYEFHFWGQGTLVTVSS VL: QAVLNQPASVSGALGQKVTISCSGSTMDIDIFGVSWYQQLPGKAPKLLVDSDGDRPSGIPDRFSGSRSGNSGTLTITGLQAEDEADYHCQSGDSALGALAIFGGGTHVTVL | 94.9 | 99.4 | 99.6 | – | – | –
humanized mAb can48L2VH_HM855323.1 / can48L2VL_Z22192.1_P14L (antibody, V domains shown) VH: EVQLVESGGGLVKPGGSLRLSCAASGFTFSTYGINWVRQAPGKGLEWVSYISSGGSSTYYADSVKGRFTISRDNAKNSLYLQMNSLRAEDTAVYYCAGSRYTYAYGGGYEFHFWGQGTLVTVSS VL: QSVVTQPPSVSGALGQRVTISCTGSTMDIDIFGVSWYQQLPGTAPKLLIYGDGDRPSGVPDRFSGSKSGASASLAITGLQAEDEADYHCQSGDSTLGALAIFGGGTHVTVL | – | – | – | 0.00102 | 1.46e-07 | 144000
can9L12VH_I50A (antibody, V domains shown) VH: EVQLVESGGDLVKPGGSLRLSCVASGFTFSSHGMHWVRQSPGKGLQWVAVANSGGSSTYYTDAVKGRFTISRDNAKNTVYLQMNSLRAEDTAMYYCAKESVGGWEQLVGPHFDYWGQGTLVIVSS VL: QSVLTQPTSVSGSLGQRVTISCSGSTNNIGILGASWYQLFPGKAPKLLVYGNGNRPSGVPDRFSGADSGDSVTLTITGLQAEDEADYYCQSFDTTLGAHVFGGGTHLTVL | 100 | 92 | 96.6 | – | – | –
can9L12VH_D113A (antibody, V domains shown) VH: EVQLVESGGDLVKPGGSLRLSCVASGFTFSSHGMHWVRQSPGKGLQWVAVINSGGSSTYYTDAVKGRFTISRDNAKNTVYLQMNSLRAEDTAMYYCAKESVGGWEQLVGPHFAYWGQGTLVIVSS VL: QSVLTQPTSVSGSLGQRVTISCSGSTNNIGILGASWYQLFPGKAPKLLVYGNGNRPSGVPDRFSGADSGDSVTLTITGLQAEDEADYYCQSFDTTLGAHVFGGGTHLTVL | 100 | 100 | 100 | – | – | –
humanized mAb can9L12VH_HM855939 / can9L12VL (antibody, V domains shown) VH: QVQLVESGGGVVQPGGSLRLSCAASGFTFSSHGMHWVRQAPGKGLEWVSVINSGGSSTYYADSVKGRFTISRDNSKNTLYLQMNSLRAEDTAVYYCAKESVGGWEQLVGPHFDYWGQGTLVIVSS VL: QSVLTQPTSVSGSLGQRVTISCSGSTNNIGILGASWYQLFPGKAPKLLVYGNGNRPSGVPDRFSGADSGDSVTLTITGLQAEDEADYYCQSFDTTLGAHVFGGGTHLTVL | – | – | – | 4.12 | 0.00161 | 390000
humanized mAb can9L12VH_X92218 / can9L12VL (antibody, V domains shown) VH: EVQLVESGGGLVQPGGSLRLSCAASGFTFSSHGMSWVRQAPGKGLEWVSVINSGGSSTYYADSVKGRFTISRDNSKNTLYLQMNSLRAEDTAVYYCAKESVGGWEQLVGPHFDYWGQGTLVIVSS VL: QSVLTQPTSVSGSLGQRVTISCSGSTNNIGILGASWYQLFPGKAPKLLVYGNGNRPSGVPDRFSGADSGDSVTLTITGLQAEDEADYYCQSFDTTLGAHVFGGGTHLTVL | – | – | – | 0.126 | 3.78e-05 | 301000
humanized mAb can9L12VH / can9L12VL_M94116_65698 (antibody, V domains shown) VH: EVQLVESGGDLVKPGGSLRLSCVASGFTFSSHGMHWVRQSPGKGLQWVAVINSGGSSTYYTDAVKGRFTISRDNAKNTVYLQMNSLRAEDTAMYYCAKESVGGWEQLVGPHFDYWGQGTLVIVSS VL: QSVLTQPTSVSGAPGQRVTISCTGSTNNIGILGVHWYQQLPGTAPKLLIYGNGNRPSGVPDRFSGADSGDSVSLAITGLQAEDEADYYCQSFDTTLGAHVFGGGTHLTVL | – | – | – | 9.19 | 0.00197 | 214000
